In paper PMC2704239:

T1: myc-tagged Tdrd2, Q80VL1
T1 chain: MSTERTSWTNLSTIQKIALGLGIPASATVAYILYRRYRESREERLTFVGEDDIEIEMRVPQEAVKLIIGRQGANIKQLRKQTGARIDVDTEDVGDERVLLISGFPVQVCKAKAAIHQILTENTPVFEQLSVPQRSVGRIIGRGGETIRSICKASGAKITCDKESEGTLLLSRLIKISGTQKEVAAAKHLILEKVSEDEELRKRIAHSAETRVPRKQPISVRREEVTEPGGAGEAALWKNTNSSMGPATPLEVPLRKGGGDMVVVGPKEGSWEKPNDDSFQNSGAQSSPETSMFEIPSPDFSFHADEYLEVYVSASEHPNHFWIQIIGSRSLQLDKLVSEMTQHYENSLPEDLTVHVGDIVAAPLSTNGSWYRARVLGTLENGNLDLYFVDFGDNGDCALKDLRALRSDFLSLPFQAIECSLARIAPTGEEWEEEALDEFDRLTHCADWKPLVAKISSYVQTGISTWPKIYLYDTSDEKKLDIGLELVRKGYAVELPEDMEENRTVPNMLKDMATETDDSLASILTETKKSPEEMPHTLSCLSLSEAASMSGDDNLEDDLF


Key:
Test in all cases: co-IP
[1] = biological target: FLAG-tagged Mili N-terminal domain (mouse)
[2] = biological target: FLAG-tagged Mili region containing the PAZ, Mid, and Piwi domains (mouse)
[3] = biological target: T1, myc-tagged Tdrd2, Q80VL1; settings: remark: other sources report otherwise

Binder	co-IP of Tdrd1 as percent of full-length Mili [1] [%]	binding as percent of the wildtype level [2] [%]	fold weaker interaction than with Tdrd1 [3] [fold]
myc-tagged Tdrd1 (natural protein) MMPRNNLEASTCKMAEPFNFEKKESKPPPQDPLRSPVAQHNHPTFRLKSPENGNTKNNFLLCEQNKQYLASQEDSSVVSSNPAVVNGEVGGSKGDRKPPPTGNPVSPLSLGNSSPPNQVKTKPSSNVTPEKSKKSHKLFENALSVNNPALFNSLGPPLRSTTCHRCGLFGSLRCSQCKQTYYCSTACQRRDWSSHSTICRPVQQSLNKLEDNKSPFETKAIEVKSEVDCPPGVTKEITAGAERVMFSDLRSLQLKKTMEIKGTVTEFKHPSNFYIQLYSSEVLENMNQLSTSLKETYANVVPEDGYLPVKGEVCVAKYTVDQTWNRAIVQAVDVLQRKAHVLYIDYGNEEMIPIDSVHPLSRGLDLFPPSAIKCCVSGVIPTAGEWSEGCVAAVKALLFEQFCSVKVMDILEEEVLTCAVDLVLQSSGKQLDHVLVEMGYGVKPGEQSSTEQSVDHSALEDVGRVTVESKIVTDRNALIPKVLTLNVGDEFCGVVAHIQTPEDFFCQQLQSGHKLAELQESLSEYCGHVIPRSDFYPTIGDVCCAQFSEDDQWYRASVLAYASEESVLVGYVDYGNFEILSLKRLCPIIPKLLDLPMQALNCVLAGVKPSLGIWTPEAVCVMKEMVQNRMVTVRVVGMLGTRALVELIDKSVAPHVSASKALIDSGFAIKEKDVADKGSSMHTASVPLAIEGPAEALEWTWVEFTVDETVDVVVCMMYSPGEFYCHFLKDDALEKLDDLNQSLADYCAQKPPNGFKAEIGRPCCAFFSGDGNWYRALVKEILPSGNVKVHFVDYGNVEEVTTDQLQAILPQFLLLPFQGMQCWLVDIQPPNKHWTKEATARFQACVVGLKLQARVVEITANGVGVELTDLSTPYPKIISDVLIREQLVLRCGSPQDSLMSRPANQHKQIDSHRVQASPSAEQWKTMELPVNKTIAANVLEIISPALFYAIPSEMSENQEKLCVLAAELLEHCNAQKGQPAYRPRTGDACCAKYTNDDFWYRAIVLETSESDVKVLYADYGNIETLPLSRVQPIPASHLELPFQIIRCSLEGPMELNGSCSQLVMELLRNAMLNQSVVLSVKAISKNVHAVSVEKCSENGMINIAENLVMCGLAENLTSKRKSASTKEIPHSRDCCCTELQKQIEKHEQILLFLLNNPTNQSKFTEMKKLLRS	76	11	
FLAG-tagged Mili, Q8CDG1 1-971 (natural protein) MDPVRPLFRGPTPVHPSQCVRMPGCWPQAPRPLEPAWGRAGPAGRGLVFRKPEDSSPPLQPVQKDSVGLVSMFRGMGLDTAFRPPSKREVPPLGRGVLGRGLSANMVRKDREEPRSSLPDPSVLAAGDSKLAEASVGWSRMLGRGSSEVSLLPLGRAASSIGRGMDKPPSAFGLTARDPPRLPQPPALSPTSLHSADPPPVLTMERKEKELLVKQGSKGTPQSLGLNLIKIQCHNEAVYQYHVTFSPSVECKSMRFGMLKDHQSVTGNVTAFDGSILYLPVKLQQVVELKSQRKTDDAEISIKIQLTKILEPCSDLCIPFYNVVFRRVMKLLDMKLVGRNFYDPTSAMVLQQHRLQIWPGYAASIRRTDGGLFLLADVSHKVIRNDSVLDVMHAIYQQNKEHFQDECSKLLVGSIVITRYNNRTYRIDDVDWNKTPKDSFVMSDGKEITFLEYYSKNYGITVKEDDQPLLIHRPSERQNNHGMLLKGEILLLPELSFMTGIPEKMKKDFRAMKDLTQQINLSPKQHHGALECLLQRISQNETASNELTRWGLSLHKDVHKIEGRLLPMERINLRNTSFVTSEDLNWVKEVTRDASILTIPMHFWALFYPKRAMDQARELVNMLEKIAGPIGMRISPPAWVELKDDRIETYIRTIQSLLGVEGKIQMVVCIIMGTRDDLYGAIKKLCCVQSPVPSQVINVRTIGQPTRLRSVAQKILLQMNCKLGGELWGVDIPLKQLMVIGMDVYHDPSRGMRSVVGFVASINLTLTKWYSRVVFQMPHQEIVDSLKLCLVGSLKKYYEVNHCLPEKIVVYRDGVSDGQLKTVANYEIPQLQKCFEAFDNYHPKMVVFVVQKKISTNLYLAAPDHFVTPSPGTVVDHTITSCEWVDFYLLAHHVRQGCGIPTHYICVLNTANLSPDHMQRLTFKLCHMYWNWPGTIRVPAPCKYAHKLAFLSGQILHHEPAIQLCGNLFFL			20
